Data reported in patent US20220170923A1 (NATIONAL CHENG KUNG UNIVERSITY, published 2022).

Target: T1, human angiotensin-converting enzyme 2 (ACE2) (human, UniProt Q9BYF1 18-740)
T1 construct: also called ACE2 receptor; human angiotensin-converting enzyme 2 on a cell surface
Test: protein microarray, ACE2 in solution, Cy3 labeled anti-human IgG detection

T1 sequence (Q9BYF1 18-740 limits assumed): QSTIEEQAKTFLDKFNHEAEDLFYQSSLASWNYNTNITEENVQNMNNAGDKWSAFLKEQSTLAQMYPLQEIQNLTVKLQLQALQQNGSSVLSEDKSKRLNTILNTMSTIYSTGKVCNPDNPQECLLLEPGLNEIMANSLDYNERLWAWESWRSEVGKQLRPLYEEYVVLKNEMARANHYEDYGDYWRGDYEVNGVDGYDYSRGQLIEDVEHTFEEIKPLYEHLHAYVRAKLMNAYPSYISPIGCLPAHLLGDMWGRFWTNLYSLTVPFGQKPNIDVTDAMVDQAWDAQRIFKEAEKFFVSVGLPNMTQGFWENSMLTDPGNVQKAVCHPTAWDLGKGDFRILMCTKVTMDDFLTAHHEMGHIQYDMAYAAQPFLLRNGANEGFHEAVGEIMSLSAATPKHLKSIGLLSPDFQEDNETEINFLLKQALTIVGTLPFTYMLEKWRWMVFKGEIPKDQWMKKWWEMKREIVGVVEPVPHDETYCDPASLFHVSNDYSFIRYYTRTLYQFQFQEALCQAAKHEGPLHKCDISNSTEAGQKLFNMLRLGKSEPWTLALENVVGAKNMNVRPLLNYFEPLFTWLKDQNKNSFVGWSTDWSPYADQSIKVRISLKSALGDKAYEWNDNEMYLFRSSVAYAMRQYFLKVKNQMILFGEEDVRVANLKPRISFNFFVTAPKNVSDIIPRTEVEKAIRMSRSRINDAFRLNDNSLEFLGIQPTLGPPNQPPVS

B1: spike protein (S protein) of MERS-CoV with His-tag (other)
chain: YVDVGPDSVKSACIEVDIQQTFFDKTWPRPIDVSKADGIIYPQGRTYSNITITYQGLFPYQGDHGDMYVYSAGHATGTTPQKLFVANYSQDVKQFANGFVVRIGAAANSTGTVIISPSTSATIRKIYPAFMLGSSVGNFSDGKMGRFFNHTLVLLPDGCGTLLRAFYCILEPRSGNHCPAGNSYTSFATYHTPATDCSDGNYNRNASLNSFKEYFNLRNCTFMYTYNITEDEILEWFGITQTAQGVHLFSSRYVDLYGGNMFQFATLPVYDTIKYYSIIPHSIRSIQSDRKAWAAFYVYKLQPLTFLLDFSVDGYIRRAIDCGFNDLSQLHCSYESFDVESGVYSVSSFEAKPSGSVVEQAEGVECDFSPLLSGTPPQVYNFKRLVFTNCNYNLTKLLSLFSVNDFTCSQISPAAIASNCYSSLILDYFSYPLSMKSDLSVSSAGPISQFNYKQSFSNPTCLILATVPHNLTTITKPLKYSYINKCSRFLSDDRTEVPQLVNANQYSPCVSIVPSTVWEDGDYYRKQLSPLEGGGWLVASGSTVAMTEQLQMGFGITVQYGTDTNSVCPKLEFANDTKIASQLGNCVEYSLYGVSGRGVFQNCTAVGVRQQRFVYDAYQNLVGYYSDDGNYYCLRACVSVPVSVIYDKETKTHATLFGSVACEHISSTMSQYSRSTRSMLKRRDSTYGPLQTPVGCVLGLVNSSLFVEDCKLPLGQSLCALPDTPSTLTPRSVRSVPGEMRLASIAFNHPIQVDQLNSSYFKLSIPTNFSFGVTQEYIQTTIQKVTVDCKQYVCNGFQKCEQLLREYGQFCSKINQALHGANLRQDDSVRNLFASVKSSQSSPIIPGFGGDFNLTLLEPVSISTGSRSARSAIEDLLFDKVTIADPGYMQGYDDCMQQGPASARDLICAQYVAGYKVLPPLMDVNMEAAYTSSLLGSIAGVGWTAGLSSFAAIPFAQSIFYRLNGVGITQQVLSENQKLIANKFNQALGAMQTGFTTTNEAFHKVQDAVNNNAQALSKLASELSNTFGAISASIGDIIQRLDVLEQDAQIDRLINGRLTTLNAFVAQQLVRSESAALSAQLAKDKVNECVKAQSKRSGFCGQGTHIVSFVVNAPNGLYFMHVGYYPSNHIEVVSAYGLCDAANPTNCIAPVNGYFIKTNNTRIVDEWSYTGSSFYAPEPITSLNTKYVAPQVTYQNISTNLPPPLLGNSTGIDFQDELDEFFKNVSTSIPNFGSLTQINTTLLDLTYEMLSLQQVVKALNESYIDLKELGNYTYYNKWPW
B1: no binding (tested: 25 ng, 50 ng, 75 ng, 100 ng, and 125 ng).
